According to paper PMC11619453:

Molecular target: ORF59HA full-length (KSHV DNA polymerase processivity factor ORF59 with an in-frame HA tag, from iSLK.BAC16-ORF59HA) (Kaposi's sarcoma-associated herpesvirus (KSHV, human herpesvirus 8), BAC16)
Sequence (F5HID2 whole entry): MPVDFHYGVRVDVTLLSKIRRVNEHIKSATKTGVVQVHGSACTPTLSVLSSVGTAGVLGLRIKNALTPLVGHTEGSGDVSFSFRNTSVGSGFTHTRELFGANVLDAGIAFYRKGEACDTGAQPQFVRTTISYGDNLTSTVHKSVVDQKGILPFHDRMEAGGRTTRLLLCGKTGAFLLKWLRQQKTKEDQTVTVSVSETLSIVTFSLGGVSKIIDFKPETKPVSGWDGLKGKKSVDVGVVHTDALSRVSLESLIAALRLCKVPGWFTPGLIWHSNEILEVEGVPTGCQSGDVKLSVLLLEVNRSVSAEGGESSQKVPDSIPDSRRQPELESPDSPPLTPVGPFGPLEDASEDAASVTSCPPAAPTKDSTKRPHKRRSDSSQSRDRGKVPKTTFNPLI

B1: ORF57 (KSHV mRNA transcript accumulation protein, MTA) (natural protein)
chain: MVQAMIDMDIMKGILEDSVSSSEFDESRDDETDAPTLEDEQLSEPAEPPADERIRGTQSAQGIPPPLGRIPKKSQGRSQLRSEIQFCSPLSRPRSPSPVNRYGKKIKFGTAGQNTRPPPEKRPRRRPRDRLQYGRTTRGGQCRAAPKRATRRPQVNCQRQDDDVRQGVSDAVKKLRLPASMIIDGESPRFDDSIIPRHHGACFNVFIPAPPSHVPEVFTDRDITALIRAGGKDDELINKKISAKKIDHLHRQMLSFVTSRHNQAYWVSCRRETAAAGGLQTLGAFVEEQMTWAQTVVRHGGWFDEKDIDIILDTAIFVCNAFVTRFRLLHLSCVFDKQSELALIKQVAYLVAMGNRLVEACNLLGEVKLNFRGGLLLAFVLTIPGMQSRRSISARGQELFRTLLEYYRPGDVMGLLNVIVMEHHSLCRNSECAAATRAAMGSAKFNKGLFFYPLS
**Q.** With B1 as the binder, how does the viral DNA accumulation (qPCR of ORF26, 72 hpi) in 59HA-WT iSLK cells transfected with 30–100DsRed, against control cells read?
**A.** 5 fold
